Reference: article PMC10360443 (Science immunology, 2023)

Biological target: HHLA2 (recombinant, SPR analyte) (human, UniProt Q9UM44 23-414)
Assay: SPR

Kd: 48.9 µM
B1: KIR3DL3 (recombinant, coupled to the streptavidin sensor chip) (receptor)
chain: QDKPFLSAWPGTVVSEGQHVTLQCRSRLGFNEFSLSKEDGMPVPELYNRIFRNSFLMGPVTPAHAGTYRCCSSHPHSPTGWSAPSNPVVIMVTGVHRKPSLLAHPGPLVKSGETVILQCWSDVRFERFLLHREGITEDPLRLVGQLHDAGSQVNYSMGPMTPALAGTYRCFGSVTHLPYELSAPSDPLDIVVVGLYGKPSLSAQPGPTVQAGENVTLSCSSRSLFDIYHLSREAEAGELRLTAVLRVNGTFQANFPLGPVTHGGNYRCFGSFRALPHAWSDPSDPLPVSVTGNSRHL
